# Test results as given in patent US20180305414A1.
# B1: hexameric multidomain polypeptide PL-624 (six linked modified domains of PL-024) (designed binder)
# chain: AQHDEAGLALETPEEPREEVTIRVNLIFADGRTQTAEFRGTFEEATAEAYRYADLLARVNGEYTADLEDGGYTINIRFAGALETPEEPREEVTIRVNLIFADGRTQTAEFRGTFEEATAEAYRYADLLARVNGEYTADLEDGGYTINIRFAGALETPEEPREEVTIRVNLIFADGRTQTAEFRGTFEEATAEAYRYADLLARVNGEYTADLEDGGYTINIRFAGALETPEEPREEVTIRVNLIFADGRTQTAEFRGTFEEATAEAYRYADLLARVNGEYTADLEDGGYTINIRFAGALETPEEPREEVTIRVNLIFADGRTQTAEFRGTFEEATAEAYRYADLLARVNGEYTADLEDGGYTINIRFAGALETPEEPREEVTIRVNLIFADGRTQTAEFRGTFEEATAEAYRYADLLARVNGEYTADLEDGGYTINIRFAGALPSKSKKILKEAKKLNKAQAPKKKK
# Tests used:
# [1] = molecular target: Fab prepared by papain treatment of human IgG (human); experiment: binding capacity; Capto L resin, 20 mg/mL human Fab, acid elution, A280
# [2] = molecular target: human IgG (available from the Chemo-Sero-Therapeutic Research Institute) (human); experiment: binding capacity; Capto L resin, human IgG, acid elution, A280
# [3] = molecular target: Fab prepared by papain treatment of human IgG (human); experiment: binding capacity; binder immobilised on agarose gel, 20 mg/mL human Fab, acid elution, A280
# [4] = molecular target: human IgG (available from the Chemo-Sero-Therapeutic Research Institute) (human); experiment: binding capacity; binder immobilised on agarose gel, human IgG
# [5] = molecular target: human IgG (available from the Chemo-Sero-Therapeutic Research Institute) (human); experiment: binding capacity against Capto L
# [6] = molecular target: Fab prepared by papain treatment of human IgG (human); experiment: binding capacity against Capto L
# [7] = molecular target: human IgG (available from the Chemo-Sero-Therapeutic Research Institute) (human); experiment: binding capacity; binder immobilised on agarose gel, human IgG, acid elution, A280
Fab Binding Capacity [1] [mg/mL gel],IgG Binding Capacity [2] [mg/mL gel],Fab Binding Capacity [3] [mg/mL gel],human IgG binding capacity relative to PL-024 [4] [%],amount of bound IgG relative to Capto L [5] [times],amount of bound Fab fragment relative to Capto L [6] [times],IgG Binding Capacity [7] [mg/mL gel],Molecule
30.9,43.6,–,–,–,–,–,Capto L (GE Healthcare KK) having a tetramer (Protein L) with the native sequence immobilized thereon
–,–,75.9,151,2.2,2.4,95.8,B1
